Measurements taken from patent US20240044920A1 (Alexion, published 2024).

B1: anti-CP mAb B (antibody, V domains shown)
VH: QQQLEESGGGLVKPGGTLTLTCKASGIDFSSYYYMCWVRQAPGKGLEWIACIYVIDDTIYCANWAKGRFTISKTSSTTVTLQMTSLTAADTATYFCARDGSSGIRDYFDLWGPGTLVTVSS
VL: AYDMTQTPASVEVAVGGTVTIKCQASESVSTWLAWYQQKPGQPPKLLIYKASDLASGVPSRFKGSGSGTEFTLTISGVECADAATYYCQQGYTYNNVENVFGGGTEVVVKG
notes: Recombinant full-length rabbit IgG from HEK-293; tested as conditioned medium, Protein A-purified and biotinylated
B2: anti-CP mAb A (antibody, V domains shown)
VH: QSLEESGGDLVKPGASLTLTCKASGFDLSRFYYMCWVRQAPGKGLEWIACIYAGRTGNTYYASWAKGRFTISKTSSTTVTLQMTSLTAADTATYFCARASGDFLAYTYAMDLWGPGTLVTVSS
VL: AAVLTQTPASVSAAVGGTVTISCQASQSVDNNNYLAWYQQKPGQPPKLLIYEASKLASGVPSRFSGSGSGTQFTLTISDVQCDDATTYYCAGGYSSSADANAFGGGTEVVVKG
notes: as for B1
B3: anti-CP mAb D (antibody, V domains shown)
VH: QEQLVESGGGLVQPEGSLTLTCKASGFDFSSYWMCWVRQAPGKRPEWIACIYGGDGTSYFAGWAKGRFTISKTSSTTVTLQMTSLTAADTATYFCARADYYVYVDGGYGHAYDLWGPGTLVTVSS
VL: DIVMTQTPASVEAAVGGSVTIKCQASDDIYSYLAWYQQKPGQPPKLLIFDASSLPSGVPSRFKGSGSGTQFTLTISGVQCADAATYYCQNYYGSSSSVHAFGGGTEVVVKG
notes: as for B1
B4: anti-CP mAb H (antibody, V domains shown)
VH: QSVEESGGRLVTPGTPLTLTCTVSGFSLSTYAMGWVRQAPGKGLEYIGIIYGGSGTFYASWAKGRFTISKTSTTVDLKITSPTTEDTATYFCARDGDDSYFDYFNLWGQGTLVTVSS
VL: AAVLTQTPASVSAAVGGTVSISCQSNENIGSNLAWYQQKPGQPPKLLIYGASTLTSGVPSRFKGSGSGTAFTLTISGVQCDDAATYYCLGGYLSTSDTTFGGGTAVVVKG
notes: as for B1
B5: anti-CP mAb C (antibody, V domains shown)
VH: QSVEESGGRLVTPGTPLTLTCTASGFSLSRYYMSWVRQAPGKGLEWIGMIYPSSGSTWYASWVKGRFTISATATSVDLKITSPTTEDTATYFCVRDRYPGYNGDSFNLWGQGTLVTVSS
VL: AQVLTQTASPVSAAVGSTVTINCQASQSVYNNNYLAWFQQKPGQPPKRLIYQASKLAIGVPSRFSGSGSGTQFTLTISDVQCDDAATYYCLGSYGCNSVDCNVFGGGTEVVVKG
notes: Recombinant full-length rabbit IgG from HEK-293; also called mAb2
B6: anti-CP mAb G (antibody, V domains shown)
VH: QSLEESGGRLVTPGTLLTLTCTVSGFSLSSNAMSWVRQAPGEGLEWIGTISSRGSTYYANWAKGRFTISKTSTTVDLKITSPTTEDTATYFCARSSLAGYEPYYFKLWGQGTLVTVSS
VL: DVVMTQTASPVSAAVGGTVTIKCQASESISSYLAWYQQKPGQPPKLLIYGASDLASGVPSRFKGSGSGTEFTLTISDLECADAATYYCQSYYGLSRNGYGNVFGGGTEVVVKG
notes: Recombinant full-length rabbit IgG from HEK-293; also called mAb3

Experiments:
human ceruloplasmin [1] = target: T1, human ceruloplasmin (human, UniProt P00450 20-1065); experiment: competition ELISA on coated CP, biotinylated probe; competitor: CP-pAb
T1 construct: also called CP; purified CP
T1 sequence: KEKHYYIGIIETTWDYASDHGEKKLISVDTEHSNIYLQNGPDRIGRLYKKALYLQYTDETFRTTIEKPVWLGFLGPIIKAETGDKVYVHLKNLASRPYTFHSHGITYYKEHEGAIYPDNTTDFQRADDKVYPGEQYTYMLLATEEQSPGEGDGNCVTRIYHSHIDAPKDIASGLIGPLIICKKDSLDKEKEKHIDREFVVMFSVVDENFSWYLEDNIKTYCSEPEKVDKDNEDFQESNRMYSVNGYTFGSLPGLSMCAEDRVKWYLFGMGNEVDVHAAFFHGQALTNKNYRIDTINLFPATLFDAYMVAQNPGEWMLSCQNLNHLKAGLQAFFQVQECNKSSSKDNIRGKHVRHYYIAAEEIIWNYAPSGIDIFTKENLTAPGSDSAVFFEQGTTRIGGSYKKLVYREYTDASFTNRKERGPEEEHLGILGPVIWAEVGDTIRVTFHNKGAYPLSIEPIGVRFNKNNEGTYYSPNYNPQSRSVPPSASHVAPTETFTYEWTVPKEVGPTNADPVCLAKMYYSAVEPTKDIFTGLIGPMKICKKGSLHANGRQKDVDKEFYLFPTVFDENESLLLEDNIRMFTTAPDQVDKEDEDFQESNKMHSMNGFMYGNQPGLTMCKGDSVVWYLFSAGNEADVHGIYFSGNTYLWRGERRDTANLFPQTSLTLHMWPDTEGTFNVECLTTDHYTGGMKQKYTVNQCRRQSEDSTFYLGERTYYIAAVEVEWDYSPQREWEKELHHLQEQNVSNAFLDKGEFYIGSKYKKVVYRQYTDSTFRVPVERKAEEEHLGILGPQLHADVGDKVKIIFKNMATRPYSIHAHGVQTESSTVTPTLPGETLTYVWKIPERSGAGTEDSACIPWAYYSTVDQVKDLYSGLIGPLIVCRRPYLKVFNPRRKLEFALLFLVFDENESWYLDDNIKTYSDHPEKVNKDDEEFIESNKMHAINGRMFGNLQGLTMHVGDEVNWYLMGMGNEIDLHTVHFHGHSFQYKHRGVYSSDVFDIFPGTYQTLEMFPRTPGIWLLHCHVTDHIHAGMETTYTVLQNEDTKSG
Protocol: (§1) To assess whether any of the 8 anti-CP antibodies competed with each other for binding to CP, the following ELISA study was performed.
(§2) Briefly, CP was coated onto plates at 0.4 ug/mL overnight. Plates were then blocked with 1% BSA for 4 hours, incubated with 10 ug/mL unlabeled blocking antibody for 1 hour, and then, without washing, 50 ng/mL of biotinylated probe antibody for 1 hour. Plates were washed and subsequently incubated with SA-HRP for 30 minutes, followed by another wash. Plates were then incubated with TMB substrate for either 30 minutes or 15 minutes, as noted below, and the reaction was stopped by adding 0.18 M sulfuric acid and read at A450. The experiment was performed on two plates with plate 1 having a TMB incubation time of 30 minutes and plate 2 having a TMB incubation time of 15 minutes. Weaker binders to coated CP were tested on plate 1 and stronger binders on plate 2, with some duplication across plates. Probe Ab/blocking Ab interactions are shown in Table 3, and a summary of the binning results for all 8 anti-CP mAbs and for the 5 mAbs showing the most robust signal on coated CP (as shown in FIG. 6) is provided in Tables 4 and 5.

human ceruloplasmin [2] = target: T1, human ceruloplasmin; experiment: capture ELISA: mAb (CM, 50 ng/mL) on anti-rabbit IgG-Fc; endogenous CP in Li-heparin human plasma 1:10,000
Protocol: (§3) Ceruloplasmin binding by the 28 recombinant anti-CP mAbs was tested as follows. Clear 96-well plates (Nunc, Maxisorp) were coated and incubated overnight at 4 degrees with 10 ug/mL goat anti-rabbit IgG-Fc (Bethyl Laboratories) in BupH carbonate-bicarbonate buffer (ThermoFisher). The coating solution was discarded, and the plates were blocked with 1% BSA in PBS at room temperature for 2 hours and then the blocking solution was discarded. The 28 anti-CP mAb transient conditioned media were diluted to 50 ng/mL in PBS-T containing 1% BSA and incubated on the blocked plates for 1 hour at room temperature. Negative control wells were incubated with PBS-T containing 1% BSA alone or with transient conditioned medium containing non-CP-specific rabbit mAb at 50 ng/mL.

human ceruloplasmin [3] = target: T1, human ceruloplasmin; experiment: competition ELISA on coated CP, biotinylated probe; competitor: mAb D
Protocol: as §1, §2

human ceruloplasmin [4] = target: T1, human ceruloplasmin; experiment: capture ELISA: mAb (CM, 50 ng/mL) on anti-rabbit IgG-Fc; 20 ng/mL purified human CP
Protocol: as §3

human ceruloplasmin [5] = target: T1, human ceruloplasmin; experiment: competition ELISA on coated CP, biotinylated probe; competitor: mAb E
Protocol: as §1, §2

human ceruloplasmin [6] = target: T1, human ceruloplasmin; experiment: competition ELISA on coated CP, biotinylated probe; competitor: mAb G
Protocol: as §1, §2

human ceruloplasmin [7] = target: T1, human ceruloplasmin; experiment: competition ELISA on coated CP, biotinylated probe; competitor: mAb A
Protocol: as §1, §2

human ceruloplasmin [8] = target: T1, human ceruloplasmin; experiment: competition ELISA on coated CP, biotinylated probe; competitor: mAb H
Protocol: as §1, §2

human ceruloplasmin [9] = target: T1, human ceruloplasmin; experiment: competition ELISA on coated CP, biotinylated probe; competitor: mAb C
Protocol: as §1, §2

human ceruloplasmin [10] = target: T1, human ceruloplasmin; experiment: competition ELISA on coated CP, biotinylated probe; competitor: mAb F
Protocol: as §1, §2

human ceruloplasmin [11] = target: T1, human ceruloplasmin; experiment: competition ELISA on coated CP, biotinylated probe; competitor: mAb B
Protocol: as §1, §2

Row | Binder | probe binding, % of diluent control (human ceruloplasmin [1]) [%] | A450 (human ceruloplasmin [2]) [A450] | probe binding, % of diluent control (human ceruloplasmin [3]) [%] | A450 (human ceruloplasmin [4]) [A450] | probe binding, % of diluent control (human ceruloplasmin [5]) [%] | probe binding, % of diluent control (human ceruloplasmin [6]) [%] | probe binding, % of diluent control (human ceruloplasmin [7]) [%] | probe binding, % of diluent control (human ceruloplasmin [8]) [%] | probe binding, % of diluent control (human ceruloplasmin [9]) [%] | probe binding, % of diluent control (human ceruloplasmin [10]) [%] | probe binding, % of diluent control (human ceruloplasmin [11]) [%]
1 | B1 | 2 | 1.32 | 34 | 1.02 | 87 | 98 | 94 | 204 | 78 | 95 | –
2 | B2 | 17 | 1.4 | 113 | 1.09 | 127 | 35 | – | 115 | 138 | -2 | 183
3 | B3 | 10 | 1.25 | – | 1.03 | 98 | 100 | 107 | 9 | 72 | 100 | 98
4 | B4 | 2 | 1.03 | 33 | 0.924 | 79 | 95 | 93 | – | 67 | 94 | 110
5 | B5 | 3 | 1.27 | 93 | 1.09 | 99 | 97 | 100 | 85 | – | 97 | 95
6 | B6 | 6 | 1.18 | 103 | 0.987 | 102 | – | 91 | 106 | 108 | 84 | 93
